Results as given in patent US20240132578A1.

What was measured:
[1] = molecular target: aMLV envelope (negative control pseudovirus) (aMLV); test: cell-based or functional assay
[2] = molecular target: HIV-1 Env of pseudovirus isolate JR-FL (clade B) (HIV-1); test: cell-based or functional assay
[3] = molecular target: HIV-1 Env of isolate MGRM-G-016 (subtype G) (HIV-1); test: cell-based or functional assay
[4] = molecular target: HIV-1 Env of isolate MGRM-D-004 (HIV-1); test: cell-based or functional assay
[5] = molecular target: HIV-1 Env of pseudovirus MGRM-F1-021 (HIV-1); test: cell-based or functional assay
[6] = molecular target: HIV-1 Env of pseudovirus MGRM-F1-023 (HIV-1); test: cell-based or functional assay
[7] = molecular target: HIV-1 Env of pseudovirus MGRM-D-011 (HIV-1); test: cell-based or functional assay
[8] = molecular target: HIV-1 92RW020 envelope (Env) on pseudovirus (HIV-1); test: cell-based or functional assay
[9] = molecular target: HIV-1 Env of isolate MGRM-AG-011 (pseudovirus) (HIV-1); test: cell-based or functional assay
[10] = molecular target: HIV-1 IAVI-C22 envelope (Env) on pseudovirus (HIV-1); test: cell-based or functional assay
[11] = molecular target: HIV-1 Env of isolate MGRM-D-020 (clade D pseudovirus) (HIV-1); test: cell-based or functional assay
[12] = molecular target: HIV-1 Env of pseudovirus MGRM-F1-022 (clade F) (HIV-1); test: cell-based or functional assay
[13] = molecular target: HIV-1 MGRM-AG-003 Env (pseudovirus) (HIV-1); test: cell-based or functional assay
[14] = molecular target: HIV-1 92TH021 envelope protein (Env) on pseudovirus (HIV-1); test: cell-based or functional assay
[15] = molecular target: HIV-1 envelope glycoprotein (Env) of isolate MGRM-C-007 (HIV-1); test: cell-based or functional assay
[16] = molecular target: HIV-1 MGRM-AE-001 Env (pseudovirus) (HIV-1); test: cell-based or functional assay
[17] = molecular target: HIV-1 VLGCA1 envelope glycoprotein (Env) on pseudovirus (HIV-1 (clade A)); test: cell-based or functional assay
[18] = molecular target: HIV-1 92TH021 Env (HIV-1); test: cell-based or functional assay
[19] = molecular target: HIV-1 envelope glycoprotein (Env) of isolate MGRM-C-004 (HIV-1); test: cell-based or functional assay
[20] = molecular target: JR-FL gp120 ΔV1/ΔV2 (HIV-1 JR-FL); test: ELISA, antigen-coated wells, mAb titrated; EC50 by nonlinear regression
[21] = molecular target: HIV-1 envelope glycoprotein (Env) of isolate 92WR020, subtype A (HIV-1); test: cell-based or functional assay
[22] = molecular target: HIV-1 JR-CSF Env W395A (HIV-1 (isolate JR-CSF)) (UniProt P20871); test: cell-based or functional assay
[23] = molecular target: HIV-1 Env of isolate MGRM-F1-017 (pseudovirus) (HIV-1); test: cell-based or functional assay
[24] = molecular target: HIV-1 envelope glycoprotein (Env) of isolate MG RM-A-011, subtype A (HIV-1); test: cell-based or functional assay
[25] = molecular target: HIV-1 envelope glycoprotein (Env) of isolate MGRM-Chronic-B-002, on pseudovirus (HIV-1); test: cell-based or functional assay
[26] = molecular target: HIV-1 envelope glycoprotein (Env) of isolate TRJO4551.58, on pseudovirus (HIV-1); test: cell-based or functional assay
[27] = molecular target: HIV-1 JR-CSF Env P313A (HIV-1 (isolate JR-CSF, clade B)) (UniProt P20871); test: cell-based or functional assay
[28] = molecular target: HIV-1 Env of isolate MGRM-F1-018 (pseudovirus) (HIV-1); test: cell-based or functional assay
[29] = molecular target: HIV-1 Env of isolate MGRM-D-001 (pseudovirus) (HIV-1); test: cell-based or functional assay
[30] = molecular target: HIV-1 Env of isolate MGRM-AG-013 (subtype AG) (HIV-1); test: cell-based or functional assay
[31] = molecular target: HIV-1 Env of isolate MGRM-Chronic-B-001 (HIV-1); test: cell-based or functional assay
[32] = molecular target: HIV-1 Env of isolate MGRM-A-010 (subtype A) (HIV-1); test: cell-based or functional assay
[33] = molecular target: HIV-1 Env of isolate MGRM-AG-003 (subtype AG) (HIV-1); test: cell-based or functional assay
[34] = molecular target: HIV-1 Env of pseudovirus isolate MGRM-C-026 (clade C) (HIV-1); test: cell-based or functional assay
[35] = molecular target: HIV-1 Env of isolate MGRM-A-005 (pseudovirus) (HIV-1); test: cell-based or functional assay
[36] = molecular target: HIV-1 Env of pseudovirus isolate MGRM-C-012 (clade C) (HIV-1); test: cell-based or functional assay
[37] = molecular target: HIV-1 Env of isolate MGRM-Chronic-B-002 (HIV-1); test: cell-based or functional assay
[38] = molecular target: HIV-1 Env of isolate MGRM-AE-003 (subtype AE) (HIV-1); test: cell-based or functional assay
[39] = molecular target: HIV-1 Env of pseudovirus isolate MGRM-C-010 (clade C) (HIV-1); test: cell-based or functional assay
[40] = molecular target: HIV-1 Env of isolate MGRM-D-012 (pseudovirus) (HIV-1); test: cell-based or functional assay
[41] = molecular target: HIV-1 Env of isolate MGRM-F1-012 (HIV-1); test: cell-based or functional assay

Sequence of PGT-144 (4970_K22) (antibody) (VH): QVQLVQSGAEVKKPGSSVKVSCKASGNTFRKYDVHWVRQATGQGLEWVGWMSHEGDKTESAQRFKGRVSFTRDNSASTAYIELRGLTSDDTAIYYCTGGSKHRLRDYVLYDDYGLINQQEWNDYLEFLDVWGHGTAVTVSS
Sequence of PGT-144 (4970_K22) (antibody) (VL): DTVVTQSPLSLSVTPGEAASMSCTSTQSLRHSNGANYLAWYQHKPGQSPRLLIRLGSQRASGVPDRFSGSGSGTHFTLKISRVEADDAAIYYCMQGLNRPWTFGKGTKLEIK
Sequence of PGT-143 (4980_N08) (antibody) (VH): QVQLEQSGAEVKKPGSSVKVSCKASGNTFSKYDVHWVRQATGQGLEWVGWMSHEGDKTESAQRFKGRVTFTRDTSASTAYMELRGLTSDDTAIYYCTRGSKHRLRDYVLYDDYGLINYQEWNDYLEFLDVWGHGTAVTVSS
Sequence of PGT-143 (4980_N08) (antibody) (VL): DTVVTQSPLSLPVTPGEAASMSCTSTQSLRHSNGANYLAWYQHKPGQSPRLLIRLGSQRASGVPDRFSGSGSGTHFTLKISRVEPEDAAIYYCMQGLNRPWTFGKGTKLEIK

Row | Substance | IC50 (µg/mL), pseudovirus neutralization [1] [µg/mL] | IC50, pseudovirus neutralization [2] [µg/mL] | IC50 (µg/mL), pseudovirus neutralization [3] [µg/mL] | IC50 (µg/mL), pseudovirus neutralization [4] [µg/mL] | IC50, pseudovirus neutralization [5] [µg/mL] | IC50, pseudovirus neutralization [6] [µg/mL] | IC50, pseudovirus neutralization [7] [µg/mL] | IC50 (µg/mL), pseudovirus neutralization [9] [µg/mL] | IC50 (ug/mL), pseudovirus neutralization [14] [µg/mL] | IC50, pseudovirus neutralization [18] [µg/mL] | EC50 [20] [µg/mL] | IC50, pseudovirus neutralization [21] [µg/mL] | IC50 (µg/mL), pseudovirus neutralization [23] [µg/mL] | IC50, pseudovirus neutralization [24] [µg/mL] | IC50, pseudovirus neutralization [25] [µg/mL] | IC50, pseudovirus neutralization [26] [µg/mL] | IC50 (µg/mL), pseudovirus neutralization [28] [µg/mL] | also measured
1 | 4980_N08 (PGT-143) (antibody) | > 50 | > 50 | 7.6 | > 50 |  |  |  |  |  |  |  |  |  |  |  |  |  | 
2 | VRC01 (antibody) | > 50 | 0.034 | 0.063 | 1.25 | 0.039 | 0.392 | 0.075 |  |  |  |  |  |  |  |  |  |  | 
3 | 4970_K22 (PGT-144) (antibody) | > 50 | > 50 | > 50 | > 50 |  |  |  |  |  |  |  |  |  |  |  |  |  | 
4 | PGT-143 (4980_N08) (antibody) |  |  |  |  | > 50 | 0.972 | > 50 |  |  |  |  |  |  |  |  |  |  | 
5 | 1496_C09 (PG9) (TCN-109) (antibody) |  |  | 1.36 |  |  |  |  | 0.007 | 0.103 | 0.103 |  |  |  |  |  |  |  | neutralization IC50 [8]: 0.0637 µg/mL; neutralization IC50 [10]: 24.9 µg/mL; IC50, pseudovirus neutralization [11]: 2.03 µg/mL; IC50 [12]: 0.06 µg/mL; IC50 (µg/ml), pseudovirus neutralization [13]: 9.71 µg/mL; IC50 (µg/ml), pseudovirus neutralization [15]: 0.09 µg/mL; IC50 (µg/ml), pseudovirus neutralization [16]: 2.97 µg/mL; IC50 (µg/ml), pseudovirus neutralization [17]: 0.07 µg/mL; IC50 (µg/ml), pseudovirus neutralization [19]: 1.18 µg/mL
6 | 5145_B14 (PGT-127) (antibody) |  |  |  |  |  |  |  | > 50 |  |  | 0.7 | 0.01 | > 50 | > 50 | 0.279 | 0.063 | 3.59 | Fold IC50 increase relative to wild-type (pseudovirus neutralization) [22]: 1.6 fold; Fold IC50 increase relative to wild-type [27]: 1.3 fold
7 | 5123_A06 (PGT-125) (antibody) |  |  |  |  |  |  |  | > 50 | 0.0066 | 0.0066 | 0.6 | 0.004 | > 50 | > 50 | 0.064 | 0.019 | > 50 | Fold IC50 increase relative to wild-type (pseudovirus neutralization) [22]: 0.9 fold; Fold IC50 increase relative to wild-type [27]: 0.3 fold
8 | PGT-144 (4970_K22) (antibody) |  |  |  |  | > 50 | 1.16 | > 50 |  |  |  |  |  |  |  |  |  |  | 
9 | 5345_I01 (PGT-137) (antibody) |  |  |  |  |  |  |  |  |  |  | 0.2 |  |  |  |  |  |  | IC50 (µg/mL), pseudovirus neutralization [29]: > 50 µg/mL; IC50, pseudovirus neutralization [30]: > 50 µg/mL; IC50 (µg/mL), pseudovirus neutralization [31]: > 50 µg/mL; IC50, pseudovirus neutralization [32]: > 50 µg/mL; IC50, pseudovirus neutralization [33]: > 50 µg/mL; IC50, pseudovirus neutralization [34]: 0.011 µg/mL; IC50 (µg/mL), pseudovirus neutralization [35]: > 50 µg/mL; IC50, pseudovirus neutralization [36]: 0.102 µg/mL; IC50 (µg/mL), pseudovirus neutralization [37]: > 50 µg/mL; IC50, pseudovirus neutralization [38]: > 50 µg/mL; IC50, pseudovirus neutralization [39]: > 50 µg/mL; IC50 (µg/mL), pseudovirus neutralization [40]: > 50 µg/mL; IC50 (µg/mL), pseudovirus neutralization [41]: > 50 µg/mL
10 | 4838_L06 (PGT-121) (antibody) |  |  |  |  |  |  |  |  | > 10 | > 10 | 0.2 | 0.004 | 16.9 | > 50 | 0.386 | 7.09 | 0.04 | 
